From the supplement of paper PMC10567573 come the findings set out here.

To fix the notation:
B1: SOAT2 (parent)
chain: SLGKQKVFIIRKSLLDELMEVQHF
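Note: lentivirally expressed fusions sorted by FACS into six bins by GFP to DsRed ratio, PSI derived from sequencing read proportions per bin multiplied by bin number.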

Variants of B1 are the subject of the series. Description: protein stability index of a GFP-peptide fusion (GPS, HEK-293T) (PSI 1-6); higher = more stable. As to conditions: c terminus: a fixed tail appended.
Regarding SDGKQKVFIIRKSLLDELMEVQHF, the protein stability index turned out to be 1.4. On to SEGKQKVFIIRKSLLDELMEVQHF, for which the protein stability index is 1.75. With SRGKQKVFIIRKSLLDELMEVQHF the figure was 2.42; with SCGKQKVFIIRKSLLDELMEVQHF, 3.02. With SHGKQKVFIIRKSLLDELMEVQHF the figure was 3.11. With SYGKQKVFIIRKSLLDELMEVQHF the figure was 2.69; with SQGKQKVFIIRKSLLDELMEVQHF, 2.21; with SLGKQHVFIIRKSLLDELMEVQHF, 1.97. Turning to SLGKQRVFIIRKSLLDELMEVQHF, the protein stability index was 2.74.

For the variant SLGKQEVFIIRKSLLDELMEVQHF, the protein stability index was found to be 2.05. Then SLGKQNVFIIRKSLLDELMEVQHF, with 1.6; and SLGKQYVFIIRKSLLDELMEVQHF, with 2.67. Turning to SLGKQVVFIIRKSLLDELMEVQHF, the protein stability index came out at 1.81. Then SLGKQGVFIIRKSLLDELMEVQHF, with 1.99; and SLGKQIVFIIRKSLLDELMEVQHF, with 3.06. Turning to SLGKQFVFIIRKSLLDELMEVQHF, the protein stability index was determined as 2.71.

For the variant SLGKQKVFIIRKSHLDELMEVQHF, the protein stability index was 2.86. For the variant SLGKQKVFIIRKSQLDELMEVQHF, the protein stability index was 1.64.

Take SLGKQKVFIIRKSPLDELMEVQHF: the protein stability index is 2.43. Then SLGKQKVFIIRKSKLDELMEVQHF, with 1.69. Then SLGKQKVFIIRKSRLDELMEVQHF, with 2.64; and SLGKQKVFIIRKSFLDELMEVQHF, with 2.52. With SLGKQKVFIIRKSNLDELMEVQHF, the protein stability index was 2.26. With SLGKQKVFIIRKSMLDELMEVQHF the figure was 2.25; with SLGKQKVFIIRKSGLDELMEVQHF, 2.2. With SLGKQKVFISRKSLLDELMEVQHF the figure was 1.8; with SLGKQKVFIARKSLLDELMEVQHF, 1.9; with SLGKQKVFILRKSLLDELMEVQHF, 2.38. Regarding SLGKQKVFINRKSLLDELMEVQHF, the protein stability index turned out to be 1.72. SLGKQKVFIHRKSLLDELMEVQHF: the protein stability index is 1.65.

In the case of SLGKQKVFIDRKSLLDELMEVQHF, the protein stability index was determined as 2.41. With SLGKQKVFIERKSLLDELMEVQHF the figure was 1.47. SLGKQKVFIMRKSLLDELMEVQHF: the protein stability index came out at 3.04.

As for SLGKQKVFIYRKSLLDELMEVQHF, the protein stability index is 1.48. With SLGKQKVFIRRKSLLDELMEVQHF the figure was 1.69; with SLHKQKVFIIRKSLLDELMEVQHF, 3.41; with SLCKQKVFIIRKSLLDELMEVQHF, 3.08. For SLYKQKVFIIRKSLLDELMEVQHF, the protein stability index was 2.76. Regarding SLIKQKVFIIRKSLLDELMEVQHF, the protein stability index amounted to 3.27. Take SLPKQKVFIIRKSLLDELMEVQHF: the protein stability index stood at 1.76. As to SLNKQKVFIIRKSLLDELMEVQHF, the protein stability index was 2.07. Take SLAKQKVFIIRKSLLDELMEVQHF: the protein stability index was found to be 2.12.

With SLTKQKVFIIRKSLLDELMEVQHF, the protein stability index turned out to be 2.83. In the case of SLEKQKVFIIRKSLLDELMEVQHF, the protein stability index was 1.94. Consider SLFKQKVFIIRKSLLDELMEVQHF, for which the protein stability index stood at 2.29. For SLMKQKVFIIRKSLLDELMEVQHF, the protein stability index was 3.27. SLGKQKVFIIRKSLLDELMEPQHF: the protein stability index was 2.16.

Take SLGKQKVFIIRKSLLDELMEGQHF: the protein stability index was found to be 1.77.

Take SLGKQKVFIIRKSLLDELMEEQHF: the protein stability index amounted to 1.99.

As for SLGKQKVFIIRKSLLDELMENQHF, the protein stability index was 2.

As to SLGKQKVFIIRKSLLDELMEAQHF, the protein stability index worked out at 3.1. On to SLGKQKVFIIRKSLLDELMEIQHF, for which the protein stability index turned out to be 3.07. Regarding SLGKQKVFIIRKSLLDELMELQHF, the protein stability index worked out at 2.

With SLGKQKVFIIRKSLLDELMEDQHF, the protein stability index amounted to 1.74. Then SLGKQKVFIIRKSLLDELMESQHF, with 2.63; and SLGKQKVFIIRKSLLDELMEVQMF, with 1.69. Then SLGKQKVFIIRKSLLDELMEVQAF, with 2.24; and SLGKQKVFIIRKSLLDELMEVQDF, with 1.67; and SLGKQKVFIIRKSLLDELMEVQPF, with 2.65. Then SLGKQKVFIIRKSLLDELMEVQWF, with 3.71; and SLGKQKVFIIRKSLLDELMEVQRF, with 1.66. In the case of SLGKQKVFIIRHSLLDELMEVQHF, the protein stability index stood at 3.61. With SLGKQKVFIIRLSLLDELMEVQHF the figure was 2.18. With SLGKQKVFIIRISLLDELMEVQHF the figure was 2.77; with SLGKQKVFIIRMSLLDELMEVQHF, 2.13; with SLGKQKVFIIRSSLLDELMEVQHF, 1.23. With SLGKQKVFIIRVSLLDELMEVQHF the figure was 3.02. With SLGKQKVFIIRTSLLDELMEVQHF, the protein stability index is 3.09.

SLGKQKVFIIRKSLLDEIMEVQHF: the protein stability index came out at 2.71. For SLGKQKVFIIRKSLLDEHMEVQHF, the protein stability index is 1.85. With SLGKQKVFIIRKSLLDESMEVQHF, the protein stability index is 1.25. For SLGKQKVFIIRKSLLDEDMEVQHF, the protein stability index amounted to 2.01. With SLGKQKVFIIRKSLLDEVMEVQHF the figure was 2.5; with SLGKDKVFIIRKSLLDELMEVQHF, 2.01; with SLGKRKVFIIRKSLLDELMEVQHF, 3.01. Then SLGKCKVFIIRKSLLDELMEVQHF, with 2.75. As to SLGKNKVFIIRKSLLDELMEVQHF, the protein stability index was determined as 2.51. Take SLGKYKVFIIRKSLLDELMEVQHF: the protein stability index is 1.85. With SLGKAKVFIIRKSLLDELMEVQHF the figure was 2.54; with SLGKHKVFIIRKSLLDELMEVQHF, 2.05; with SLGKIKVFIIRKSLLDELMEVQHF, 2.44. With SLGKVKVFIIRKSLLDELMEVQHF the figure was 2.91; with SLGKTKVFIIRKSLLDELMEVQHF, 2.23; with SLGKQKVFIIRKSLLWELMEVQHF, 3.25. With SLGKQKVFIIRKSLLYELMEVQHF the figure was 3.13. As to SLGKQKVFIIRKSLLSELMEVQHF, the protein stability index amounted to 2.09. With SLGKQKVFIIRKSLLGELMEVQHF the figure was 2.76; with SLGKQKVFIIRKSLLIELMEVQHF, 2.98.

With SLGKQKVFIIRKSLLEELMEVQHF, the protein stability index is 2.39. As for SLGKQKVFIIRKSLLPELMEVQHF, the protein stability index amounted to 2.02. SLGKQKVFIIRKSLLDELMEVQHT: the protein stability index came out at 1.8. Regarding SLGKQKVFIIRKSLLDELMEVQHR, the protein stability index was 2.03. With SLGKQKVFIIRKSLLDELMEVQHY the figure was 2.74; with SLGKQKVFIIRKSLLDELMEVQHI, 2.9.
